Experimental data published in patent US20030088057A1, “PEPTIDE SUBSTRATES PHOSPHORYLATED BY P21-ACTIVAGED PROTEIN KINASE STATEMENT REGARDING FEDERALLY SPONSORED REASEARCH OR DEVELOPMENT” (priority 1998, published 2003).

System: γ-PAK
Test: Phosphorylation of protein substrates by γ-PAK
Format: biochemical, rabbit
Details: for 32P incorporated: 2 μg protein substrate, 20 units active γ-PAK, 15 min at 30° C.; for rel rate: relative to histone 2B = 100
Protocol: D. Phosphorylation Assays. Phosphorylation of protein substrates was carried out in 35 μL reaction mixtures containing 20 mM Tris-HCl, pH 7.4, 10 mM MgCl2, 30 mM 2-mercaptoethanol, 0.2 mM ATP (specific activity =1000 cpm/pmol), 2 μg of protein substrate, and 20 units of active γ-PAK (an enzyme unit is defined as the amount of enzyme that incorporates 1 pmol of phosphate into histone IIAS/ min at 30°. Under these conditions, phosphate incorporation was linear and initial rates of phosphorylation were measured. After incubation at 30° C. for 15 min, reactions were terminated by the addition of 5 μL of 100 mM nonlabeled ATP and sample buffer for gel electrophoresis [Hathaway, G. M., et al., Methods Enzymol., 60:495-511 (1979)]. Reaction mixtures were subjected to SDS-PAGE on 15% polyacrylamide gels followed by autoradiography. Phosphorylation was quantified by excising the protein band and counting the incorporated ^32P in a liquid scintillation counter. The specific activity of γ-PAK was 400 pmol min^−1 μg^−1 as reported previously using 0.2 mM ATP and 1 mg/mL mixed histone as substrate [Rooney, R. D., et al., (1996), supra].
A number of proteins were examined as substrates, and their relative rates of phosphorylation were compared (Table 6).

Chain of γ-PAK (Q29502 249-524 limits assumed): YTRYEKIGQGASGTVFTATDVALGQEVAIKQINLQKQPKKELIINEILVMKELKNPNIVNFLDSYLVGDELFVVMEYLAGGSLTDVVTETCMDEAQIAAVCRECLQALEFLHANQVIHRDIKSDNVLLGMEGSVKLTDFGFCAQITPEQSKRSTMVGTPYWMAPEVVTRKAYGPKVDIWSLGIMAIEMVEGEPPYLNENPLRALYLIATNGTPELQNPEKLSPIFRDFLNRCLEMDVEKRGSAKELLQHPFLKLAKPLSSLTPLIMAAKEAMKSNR

Molecule	32P incorporated [pmol]	rel rate [%]
prolactin: rat prolactin (protein) LPVCSGGDCQTPLPELFDRVVMLSHYIHTLYTDMFIEFDKQYVQDREFIAKAINDCPTSSLATPEDKEQAQKVPPEVLLNLILSLVHSWNDPLFQLITGLGGIHEAPDAIISRAKEIEEQNKRLLEGIEKIISQAYPEAKGNEIYLVWSQLPSLQGVDEESKDLAFYNNIRCLRRDSHKVDNYLKFLRCQIVHKNNC	1.8	17
myelin basic protein: bovine myelin basic protein, purchased from Sigma (protein) AAQKRPSQRSKYLASASTMDHARHGFLPRHRDTGILDSLGRFFGSDRGAPKRGSGKDGHHAARTTHYGSLPQKAQGHRPQDENPVVHFFKNIVTPRTPPPSQGKGRGLSLSRFSWGAEGQKPGFGYGGRASDYKSAHKGLKGHDAQGTLSKIFKLGGRDSRSGSPMARR	4.2	37
